In publication PMC10899662, “TopBP1 utilises a bipartite GINS binding mode to support genome replication” (Nature Communications, 2024):

Test system: chromatin-bound replication proteins
Assay: Chromatin mass spectrometry (CHROMASS) from TopBP1-depleted Xenopus egg extracts
Format: biochemical, Xenopus laevis
Settings: mass spectrometry and immunoblotting; 75 min after starting replication, aphidicolin added, TopBP1 6 ng/µl; n = 4 for MS
Experimental: Fig. 6 GINS binding to TopBP1 is required for the origin firing step of replication. a–c Heat map showing the intensity of chromatin-bound proteins recovered from TopBP1-depleted interphase Xenopus egg extracts supplemented wild type or mutant TopBP1 determined by quantitative mass spectrometry. Chromatin was isolated 75 min after sperm addition. All extracts contained […] aphidicolin and, where indicated, […] geminin. […] For the intensities of all proteins see Supplementary Data 2. b, c Volcano plots highlighting a selection of differentially detected proteins in samples described in (a). Log2 transformed LFQ intensities from four replicates each were analysed by a two-sided Student’s t-test. […] Coomassie staining of the gel part containing histones served as a loading control.
For chromatin isolation, XTopBP1-depleted interphase egg extract was supplemented with 50 µg/ml aphidicolin and aliquoted into 15 µl samples before addition of buffer or recombinant TopBP1 to a final concentration 6 ng/µl. 2.25 µM Xgeminin or buffer were added before incubation for 10 min on ice. To start the replication, 9 ng sperm DNA/µl extract was added and incubated for 75 min at 23 °C. […] For MS analysis, four biological replicates of chromatin pellets were analysed by CHROMASS[45]. […]

B1: TopBP1-BRCT0-5-WT: recombinant TopBP1 amino acids 1–766, strep-tagged (protein)
chain: MSRNDKEPFFVKFLKSSDNSKCFFKALESIKEFQSEEYLQIITEEEALKIKENDRSLYICDPFSGVVFDHLKKLGCRIVGPQVVIFCMHHQRCVPRAEHPVYNMVMSDVTISCTSLEKEKREEVHKYVQMMGGRVYRDLNVSVTHLIAGEVGSKKYLVAANLKKPILLPSWIKTLWEKSQEKKITRYTDINMEDFKCPIFLGCIICVTGLCGLDRKEVQQLTVKHGGQYMGQLKMNECTHLIVQEPKGQKYECAKRWNVHCVTTQWFFDSIEKGFCQDESIYKTEPRPEAKTMPNSSTPTSQINTIDSRTLSDVSNISNINASCVSESICNSLNSKLEPTLENLENLDVSAFQAPEDLLDGCRIYLCGFSGRKLDKLRRLINSGGGVRFNQLNEDVTHVIVGDYDDELKQFWNKSAHRPHVVGAKWLLECFSKGYMLSEEPYIHANYQPVEIPVSHKPESKAALLKKKNSSFSKKDFAPSEKHEQADEDLLSQYENGSSTVVEAKTSEARPFNDSTHAEPLNDSTHISLQEENQSSVSHCVPDVSTITEEGLFSQKSFLVLGFSNENESNIANIIKENAGKIMSLLSRTVADYAVVPLLGCEVEATVGEVVTNTWLVTCIDYQTLFDPKSNPLFTPVPVMTGMTPLEDCVISFSQCAGAEKESLTFLANLLGASVQEYFVRKSNAKKGMFASTHLILKERGGSKYEAAKKWNLPAVTIAWLLETARTGKRADESHFLIENSTKEERSLETEITNGINLNSDTAEHP
modifications: left off: Strep, C-terminal, kept
notes: recombinant TopBP1 amino acids 1–766, strep-tagged
With B1 the “chromatin binding of replisome markers / Mcm2-7” value was “Several replisome markers, including GINS and Cdc45, were detected on chromatin”.
